This is an account of results in patent publication US20150377889.

The data set deals with recombinant wild type full-length human galectin-3, His-tagged (unphosphorylated).
Sequence of recombinant wild type full-length human galectin-3, His-tagged (unphosphorylated) (chain, as listed by the source): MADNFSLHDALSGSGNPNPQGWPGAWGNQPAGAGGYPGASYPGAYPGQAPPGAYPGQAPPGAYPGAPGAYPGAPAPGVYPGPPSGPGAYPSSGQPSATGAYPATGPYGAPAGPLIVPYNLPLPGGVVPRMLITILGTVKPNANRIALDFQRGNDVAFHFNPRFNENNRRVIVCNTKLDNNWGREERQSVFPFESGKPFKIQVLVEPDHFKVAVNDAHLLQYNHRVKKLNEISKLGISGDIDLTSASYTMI

B1: active c-Abl kinase (protein)
chain: PVNSLEKHSWYHGPVSRNAAEYLLSSGINGSFLVRESESSPGQRSISLRYEGRVYHYRINTASDGKLYVSSESRFNTLAELVHHHSTVADGLITTLHYPAPKRNKPTVYGVSPNYDKWEMERTDITMKHKLGGGQYGEVYEGVWKKYSLTVAVKTLKEDTMEVEEFLKEAAVMKEIKHPNLVQLLGVCTREPPFYIITEFMTYGNLLDYLRECNRQEVNAVVLLYMATQISSAMEYLEKKNFIHRDLAARNCLVGENHLVKVADFGLSRLMTGDTYTAHAGAKFPIKWTAPESLAYNKFSIKSDVWAFGVLLWEIATYGMSPYPGIDLSQVYELLEKDYRMERPEGCPEKVYELMRACWQWNPSDRPSFAEIHQAFETMFQESSISDEVEKELGKQGVRGAVSTLLQAPELPTKTRTSRRAAEHRDTTDVPEMPHS
As for B1, the “in vitro tyrosine phosphorylation of galectin-3 (c-Abl kinase assay, pTyr blot)” value is on record as “phosphorylating galectin-3 in vitro with active c-Abl”.
